US20110005523A1, “Pharmaceutical Polypeptide Dry Powder Aerosol Formulation and Method of Preparation” (published 2011)
Values joined by “and” are separate entries in the source; they are usually repeats but may differ in a detail not shown here. Equal values may be shown once.

What was measured:
[1] = biological target: T1, IL-4 receptor (Homo sapiens (Human), UniProt P24394); assay: cell-based or functional assay
[2] = biological target: T1, IL-4 receptor; assay: cell-based or functional assay; remark: listed apart in the source

B1: human interleukin-4 mutein met-R121D/Y124D (ligand)
chain: MHKCDITLQEIIKTLNSLTEQKTLCTELTVTDIFAASKNTTEKETFCRAATVLRQFYSHHEKDTRCLGATAQQFHRHKQLIRFLKRLDRNLWGLAGLNSCPVKEANQSTLENFLERLKTIMDEKDSKCSS
With B1 as the binder, how does the “Functionality by Bioassay (specific activity), EC 50 (nM); stability batch, 1 month (5° C.)” value [1] read?
The value was 0.178 nM and 0.138 nM.

What about the “Functionality by Bioassay (specific activity), EC 50 (nM); stability batch, 1 month (30° C./65%)” value [1] of the same binder?
Its value is 0.191 nM and 0.184 nM.

What about the “Functionality by Bioassay (specific activity), EC 50 (nM); stability batch, 3 month (5° C.)” value [1] of the same binder?
Its value is 0.302 nM.

What about the “Functionality by Bioassay (specific activity), EC 50 (nM); stability batch, 3 month (30° C./65%)” value [1] of the same binder?
Its value is 0.3 nM.

And the “Functionality by Bioassay (specific activity), EC 50 (nM); stability batch, T0” value [1]?
Its value is 0.246 nM and 0.263 nM.

And the “Functionality by Bioassay, Standard EC 50 (nM); reference standard” value [1]?
The value was 0.264 nM and 0.194 nM and 0.305 nM.

What about the “Mean EC50, nM (TF1 bioassay; 1-Spray Dry Powder)” value [2] of the same binder?
Its value is 0.496 nM.

What about the “Mean EC50, nM (TF1 bioassay; 2-Spray Dry Powder)” value [2] of the same binder?
Its value is 0.518 nM.

And the “Mean EC50, nM (TF1 bioassay; 3-Spray Dry Powder)” value [2]?
Its value is 0.577 nM.

What about the “Mean EC50, nM (TF1 bioassay; 4-Spray Dry Powder)” value [2] of the same binder?
The value was 0.555 nM.

What about the “Mean EC50, nM (TF1 bioassay; mIL-4 Standard)” value [2] of the same binder?
The value was 0.524 nM.
